Test results as given in US20110300138A1 (published 2011).
Read-outs that look alike come from different tables or passages of the source.

Columns and labels:
Test in all cases: cell-based or functional assay
[1] = target: human TSHR (thyroid stimulating hormone receptor) expressed in transfected CHO cells (human) (UniProt P16473)
[2] = target: human TSH receptor (full length, wild type) expressed in CHO cells (human) (UniProt P16473)
[3] = target: human TSH receptor (full length, wild type) expressed in CHO cells (human) (UniProt P16473); remark: listed apart in the source
[4] = target: human TSH receptor (full length, wild type) expressed in CHO cells (human) (UniProt P16473); remark: listed apart in the source
[5] = target: human TSHR (wild type, full length) expressed in CHO cells (human) (UniProt P16473)
[6] = target: human TSHR (wild type, full length) expressed in CHO cells (human) (UniProt P16473); remark: listed apart in the source

- % Inhibition; 3 ng/mL M22 IgG + 0.001 µg/mL 9D33 IgG [1]: 9%
- % Inhibition; 3 ng/mL M22 IgG + 0.01 µg/mL 9D33 IgG [1]: 2%
- % Inhibition; 3 ng/mL M22 IgG + 0.1 µg/mL 9D33 IgG [1]: 66%
- % Inhibition; 3 ng/mL M22 IgG + 1 µg/mL 9D33 IgG [1]: 93%
- % Inhibition; 3 ng/mL M22 IgG + 10 µg/mL 9D33 IgG [1]: 94%
- % Inhibition; 3 ng/mL M22 IgG + 100 µg/mL 9D33 IgG [1]: 95%
- Cyclic AMP concentration; 3 ng/mL M22 IgG + 0.001 µg/mL 9D33 IgG [1]: 19.4 pmol/mL
- Cyclic AMP concentration; 3 ng/mL M22 IgG + 0.01 µg/mL 9D33 IgG [1]: 21 pmol/mL
- Cyclic AMP concentration; 3 ng/mL M22 IgG + 0.1 µg/mL 9D33 IgG [1]: 7.19 pmol/mL
- Cyclic AMP concentration; 3 ng/mL M22 IgG + 1 µg/mL 9D33 IgG [1]: 1.48 pmol/mL
- Cyclic AMP concentration; 3 ng/mL M22 IgG + 10 µg/mL 9D33 IgG [1]: 1.2 pmol/mL
- Cyclic AMP concentration; 3 ng/mL M22 IgG + 100 µg/mL 9D33 IgG [1]: 1.01 pmol/mL
- Cyclic AMP concentration; 100 µg/mL 9D33 IgG [1]: 1.31 pmol/mL
- % Inhibition; T4 serum + 100 µg/mL 9D33 [2]: 94.8%
- % Inhibition; T5 serum + 100 µg/mL 9D33 [2]: 95.6%
- % Inhibition; T6 serum + 100 µg/mL 9D33 [2]: 94%
- Cyclic AMP concentration; 100 µg/mL 9D33 alone [2]: 2 pmol/mL
- Cyclic AMP concentration; HBD + 100 µg/mL 9D33 [2]: 3.9 pmol/mL
- Cyclic AMP concentration; T4 serum + 100 µg/mL 9D33 [2]: 4.1 pmol/mL
- Cyclic AMP concentration; T5 serum + 100 µg/mL 9D33 [2]: 2.9 pmol/mL
- Cyclic AMP concentration; T6 serum + 100 µg/mL 9D33 [2]: 5 pmol/mL
- % Inhibition; T7 serum + 100 µg/mL 9D33 IgG [3]: 93%
- % Inhibition; T8 serum + 100 µg/mL 9D33 IgG [3]: 95%
- % Inhibition; T9 serum + 100 µg/mL 9D33 IgG [3]: 87.2%
- Cyclic AMP concentration; 100 µg/mL 9D33 IgG alone [3]: 2.4 pmol/mL
- Cyclic AMP concentration; HBD + 100 µg/mL 9D33 IgG [3]: 5.4 pmol/mL
- Cyclic AMP concentration; T7 serum + 100 µg/mL 9D33 IgG [3]: 6.3 pmol/mL
- Cyclic AMP concentration; T8 serum + 100 µg/mL 9D33 IgG [3]: 4.3 pmol/mL
- Cyclic AMP concentration; T9 serum + 100 µg/mL 9D33 IgG [3]: 7.2 pmol/mL
- % Inhibition; T10 serum + 100 µg/mL 9D33 IgG [4]: 95.4%
- % Inhibition; T11 serum + 100 µg/mL 9D33 IgG [4]: 87.1%
- % Inhibition; T12 serum + 100 µg/mL 9D33 IgG [4]: 91.7%
- Cyclic AMP concentration; 100 µg/mL 9D33 IgG alone [4]: 1.9 pmol/mL
- Cyclic AMP concentration; HBD + 100 µg/mL 9D33 IgG [4]: 3.2 pmol/mL
- Cyclic AMP concentration; T10 serum + 100 µg/mL 9D33 IgG [4]: 2.6 pmol/mL
- Cyclic AMP concentration; T11 serum + 100 µg/mL 9D33 IgG [4]: 5.3 pmol/mL
- Cyclic AMP concentration; T12 serum + 100 µg/mL 9D33 IgG [4]: 3.6 pmol/mL
- % Inhibition of T13 serum stimulation; 100 µg/mL 9D33 IgG [5]: 92.2%
- % Inhibition of T14 serum stimulation; 100 µg/mL 9D33 IgG [5]: 89.7%
- % Inhibition of T15 serum stimulation; 100 µg/mL 9D33 IgG [5]: 92.4%
- Cyclic AMP concentration; 100 µg/mL 9D33 IgG alone [5]: 2.3 pmol/mL
- Cyclic AMP concentration; HBD + 100 µg/mL 9D33 IgG [5]: 3.3 pmol/mL
- Cyclic AMP concentration; T13 serum + 100 µg/mL 9D33 IgG [5]: 3.8 pmol/mL
- Cyclic AMP concentration; T14 serum + 100 µg/mL 9D33 IgG [5]: 2.8 pmol/mL
- Cyclic AMP concentration; T15 serum + 100 µg/mL 9D33 IgG [5]: 3.9 pmol/mL
- % Inhibition of T8 serum stimulation; 0.01 µg/mL 9D33 IgG [6]: 12%
- % Inhibition of T8 serum stimulation; 0.1 µg/mL 9D33 IgG [6]: 56%
- % Inhibition of T8 serum stimulation; 1 µg/mL 9D33 IgG [6]: 91%
- % Inhibition of T8 serum stimulation; 10 µg/mL 9D33 IgG [6]: 93%
- % Inhibition of T8 serum stimulation; 100 µg/mL 9D33 IgG [6]: 93%
- Cyclic AMP concentration; 0.01 µg/mL 9D33 IgG + T8 [6]: 45.8 pmol/mL
- Cyclic AMP concentration; 0.1 µg/mL 9D33 IgG + T8 [6]: 22.9 pmol/mL
- Cyclic AMP concentration; 1 µg/mL 9D33 IgG + T8 [6]: 4.7 pmol/mL
- Cyclic AMP concentration; 10 µg/mL 9D33 IgG + T8 [6]: 3.7 pmol/mL
- Cyclic AMP concentration; 100 µg/mL 9D33 IgG + T8 [6]: 3.6 pmol/mL
Substance: 9D33 IgG (antibody)
